One block for each molecule: values may come before it.
Tests used:
[1] = Kinetics of drug absorption from hGH tip-coated microprotrusion array systems, plasma hGH by ELISA; assay type: in vivo, hairless guinea pigs
Procedure: However, on the microprotrusion itself, the coating was found unevenly distributed.
Systems remained on the skin for 5 seconds (n=3) or 5 minutes (n=5). A group of animals (n=5) received a subcutaneous injection of 10 μg hGH. Blood samples were collected at time intervals for plasma hGH determination by ELISA. The hGH dose delivered was extrapolated based on an area under the curve (AUC) calculation compared to IV administration of hGH. […] On average, 5 μg of hGH was delivered in each animal, which accounts for approximately 50% of the coated dose.

[2] = guinea pig, in vivo
[3] = Ovalbumin delivery from tip-coated microprotrusion array systems, skin biopsy fluorimetry; assay type: in vivo, euthanized hairless guinea pigs
Procedure: The coating was limited to the first 150 μm of the microprojection.
The applied systems comprised a coated microprotrusion array, adhered to the center of a LDPE backing with an adhesive (7 cm^2 disc). […] At the end of the wearing time, the system was removed and the skin wiped clean of any residual drug. The total amount of ovalbumin delivered in the skin during these time intervals was determined by dissolving a 8 mm skin biopsy in hyamine hydroxide (10% in methanol). Quantitation was performed by fluorimetry. […] Close to 100% of the dose had been delivered after 1 hour application time (solid bar).

[4] = Ovalbumin delivery from microprotrusion systems coated with 200, 50 and 10 mg/ml solutions; assay type: in vivo, hairless guinea pigs; conditions: coating solutions 200, 50 and 10 mg/ml, device removed immediately after application
Procedure: An experiment similar to that described in Example 1 was performed in the HGPs using the identical microprotrusion systems which were coated with aqueous ovalbumin solutions having ovalbumin concentrations of 200, 50, and 10 mg/ml ovalbumin. In all groups the microprotrusion device was removed immediately after application. Application and analysis were performed identically to that described in Example 1.

[5] = Ovalbumin absorption into the skin from dip-coated microprotrusion devices, skin biopsy fluorimetry; assay type: in vivo, hairless guinea pigs; conditions: dip-coated device, 8 mm skin biopsy
Procedure: The feasibility of coating the microprotrusion devices with ovalbumin was evaluated. A coating solution comprising 200 mg/ml of fluorescein-tagged ovalbumin in water was prepared.
Microprotrusion application was performed using a spring loaded applicator which impacted the system against the animal's skin. […] The average total amount of ovalbumin delivered into the skin (Mavg) during these time intervals was determined by taking an 8 mm skin biopsy at the application site. The skin biopsy sample was then dissolved in hyamine hydroxide (diisobutylcresoxyethoxyethyl) dimethyl) benzylammonium hydroxide, 1 M in ethanol, sold by J. T. Baker (NJ, USA) and the amount of ovalbumin present was determined by fluorimetry. […] Although ovalbumin is not a pharmacological agent used in therapeutics, it is a good model for large potent pharmacologically active agents such as follicle stimulating hormone and erythropoietin.

Molecule: hGH: Human growth hormone, model for cytokines, particularly interferon
bioavailability ([1]; subcutaneous administration of 10 μg hGH): 65%
hGH delivery, 5 seconds versus 5 minutes wearing times ([1]; tip-coated array): the same
hGH delivered as share of the coated dose ([1]; tip-coated array, 5 seconds or 5 minutes wear): approximately 50%
hGH delivered in each animal, on average ([1]; tip-coated array, 5 seconds or 5 minutes wear, extrapolated from AUC compared to IV): 5 µg

amount of desmopressin delivered versus Group B [2]: did not increase significantly
average delivery of desmopressin [2]: about 5 μg
average desmopressin delivered [2]: 18 µg
Molecule: NC(=O)CC[C@@H]1NC(=O)[C@H](Cc2ccccc2)NC(=O)[C@H](Cc2ccc(O)cc2)NC(=O)CCSSC[C@@H](C(=O)N2CCC[C@H]2C(=O)N[C@H](CCCN=C(N)N)C(=O)NCC(N)=O)NC(=O)[C@H](CC(N)=O)NC1=O [desmopressin]
Additional drug absorbed after the first two hours [2]: no additional amount of drug was absorbed

B1: ovalbumin: a 45,000 Dalton polypeptide containing an oligosaccharide side chain; model for large pharmacological agents; fluorescein/FITC-tagged in delivery studies (protein, UniProt P01012 2-386, looked up)
Ovalbumin: GSIGAASMEFCFDVFKELKVHHANENIFYCPIAIMSALAMVYLGAKDSTRTQINKVVRFDKLPGFGDSIEAQCGTSVNVHSSLRDILNQITKPNDVYSFSLASRLYAEERYPILPEYLQCVKELYRGGLEPINFQTAADQARELINSWVESQTNGIIRNVLQPSSVDSQTAMVLVNAIVFKGLWEKAFKDEDTQAMPFRVTEQESKPVQMMYQIGLFRVASMASEKMKILELPFASGTMSMLVLLPDEVSGLEQLESIINFEKLTEWTSSNVMEERKIKVYLPRMKMEEKYNLTSVLMAMGITDVFSSSANLSGISSAESLKISQAVHAAHAEINEAGREVVGSAEAGVDAASVSEEFRADHPFLFCIKHIATNAVLFFGRCVSP
modifications: fluorescein/FITC label
notes: a 45,000 Dalton polypeptide containing an oligosaccharide side chain; model for large pharmacological agents; fluorescein/FITC-tagged in delivery studies
ovalbumin dose delivered ([3]; 5 seconds wearing time): more than 80%
ovalbumin dose delivered ([3]; 1 hour application time): ~100%
delivery of ovalbumin as a function of amount coated [4]: could be controlled by controlling the amounts coated on the microprotrusions
ovalbumin delivered intracutaneously ([5]; 5 second piercing): about 25 μg
ovalbumin delivered intracutaneously ([5]; 1 hour application period): up to 80 μg
